# Data as given in the DeepSol protein solubility set.
# Experiment: soluble on expression in E. coli; label from the status in PepcDB or PDB records
row,Sequence,soluble on expression in E. coli
1,MSLALIVQKFGGTSVGTVERIEQVAEKVKKFREAGDDVVVVVSAMSGETNRLIGLANQIMEQPVPRELDVMVSTGEQVTIALLSMALIKRGVPAVSYTGNQVRILTDSAHTKARILHIDDTHIRADLKAGRVVVVAGFQGVDGNGNITTLGRGGSDTTGVALAAALKADECQIYTDVDGVYTTDPRVVPQARRLDKITFEEMLEMASLGSKVLQIRAVEFAGKYNVPLRVLHSFQEGPGTLITIDDEEESMEQPIISGIAFNRDEAKLTIRGVPDTPGVAFKILGPISAANVEVDMIVQNVAHDNTTDFTFTVHRNDYLNALEILKQTAANIGAREAIGDTNIAKVSIVGVGMRSHAGVASRMFEALAKESINIQMISTSEIKVSVVIEEKYLELAVRALHTAFELDAPARQGEEGHHHHHH,soluble
2,MGSDKIHHHHHHMVVNLTYMLNTEDRKFIIDSVKKGYKVTELARMFNVTPRRIQQILHESEMPESAKDSELTDEEKKFIDDLWDRYRIGSRTIYYLLRSKGLNVSYYKIYNYMKMKRMVQIKDNALIVNGKKAEPPLSTVLLDYHQKNFNDQYAIFCVDMTTKKILSYAESVKITSDVVSGVL,not soluble
3,MSLESIQSSLKHMTGNRSFEKQFTQLKEAVFRSPHVQLFLEEHPSLSPITLEQGLSKLYEYQKEQSHCAHCPGLQKCPNLMKGYQPTLYVERDSLELSYSPCPLKEEEEREKKKRSLIRSLYIPKEILEAKFDDVESEPGRSIASHRALEFALSAKPGEDGMGLYLYGKFGVGKTFLMGAIANELKDRGIDSTIVYVPDFFRELKQSIGDGTFQQKLDFVKNAQVLIFDDIGAETMTSWVRDDVLGVILQYRIMEKLPTLFTSNYDYDELEEHLAYNDKSGTELLKAKRVMERIRHYTVSVMVQGQNRREHQSEGHHHHHH,soluble
4,AIAAESNQNTDGAVEEGEDENTGDSNLQMELSAFRAKWMSELQPSSGGQRSFSRNAELRRRQETAKEEKARELFLKAVEEEQNGAVYEAIKYYKSAMQLVPDIEFKINYSRTPDPERGGSYLESSENNREIDDLLTYFQHQLTLGNDAMKLCEHETETSQVHISALPFEVLMYIFRWVVSCDLDLRALEQLSLVCRGFYICARDPEIWRSACLRVWGRSCTKMLPYSSWREMFLERPRVRFDGVYISKTSYIRQGEESLDGFYRAWHQVEYYRYLRFFPDGQVMMLTTPEDPLVTVPRLRSKNSRMDSIMFGHYRLSQDTDNQTKVYVVVSKRKEEKVSEYQRSRFCRRNPVPEAERSFHVGLQLSSGGRQRFNKLVWIHHSCHITYRSTGETVVTAFDVDKMYTPLFFARVKSYTAFSERPL,soluble
5,MGSDKIHHHHHHMRVGVIGVGCSRFGRRDDAVIQELAYEAVKEALDDAGITQDEVELSVVGSVNTRGYELMPAVPVNEYCGFAGKGPLRVEAACATGAAAVYTAYTSIASGMADVAIAIGVEKMTEVDTATSLAIGGRAGNYLWEFHQYGTTFPAYYAMHATAHMAKYGTTEEQMAKVAVKAHRNAARNPKAHFQKEIAVEDVLNSRYITYPLKLYDCSPISDGSAAAILASEEKIRELGIDDVVWIDSVGYASDTSNMTNRESFVGLKATVLAREMAYRKAGIEEPVKQLDFATVHDCFTIAEIMAYEDLGFCRKGEGGKLVESGETELGGKLPVNTFGGLKAKGHPLAATGVAMVYEIVKQLRGEAGELQVELRNNRALLHNVGGTGHFAFVMIFGR,not soluble
6,MLNTLIVGASGYAGAELVTYVNRHPHMNITALTVSAQSNDAGKLISDLHPQLKGIVELPLQPMSDISEFSPGVDVVFLATAHEVSHDLAPQFLEAGCVVFDLSGAFRVNDATFYEKYYGFTHQYPELLEQAAYGLAEWCGNKLKEANLIAVPGCYPTAAQLALKPLIDADLLDLNQWPVINATSGVSGAGRKAAISNSFCEVSLQPYGVFTHRHQPEIATHLGADVIFTPHLGNFPRGILETITCRLKSGVTQAQVAQALQQAYAHKPLVRLYDKGVPALKNVVGLPFCDIGFAVQGEHLIIVATEDNLLKGAAAQAVQCANIRFGYAETQSLI,not soluble
7,MAHHHHHHMEKKKKESTIKISLNINTKFNESYLDEQNDIINEALIKNNNKEIIHSLNLIENIRQGTFDYKDLREVYFMNDNDLFSMLNDKKASEEKGKGKEDAHNNNNIDNKICNNDKVGDKNKKLSNNNNNNGNDLNIQIEGDQNYNFNKNNETNIFVLDNDVDKVCIIRFPFSVSKDIKKYLLNKNLDMVIQPTTLLNSRFFLIHFKNINKKFHGILLELSTHIEIHKTLDRNNLYKSNDVSQMIYVYEHNTNSKELLKKFINNNFELCGGISKKLNHFIFQNHTKLFKYHDIYFAEKLIYEYLNTPYYDYFDLYVKTLNEMHNHIIMEKENNNKQNEIVDETTDLAAILGSLDNSYNIMNLIEKQDGDIDFEALLNYDIEKENYESDVSDLLLGGTYYLQKK,not soluble
8,MTLSFTARWRDELPATYTALLPTPLKNARLIWYNDELAQQLAIPASLFDATNGAGVWGGETLLPGMSPVAQVYSGHQFGVWAGQLGDGRGILLGEQLLADGSTLDWHLKGAGLTPYSRMGDGRAVLRSTIRESLASEAMHYLGIPTTRALSIVTSDTPVQRETQETGAMLMRLAQSHMRFGHFEHFYYRREPEKVQQLADFAIRHYWPQWQDVAEKYALWFEEVAARTGRLIAEWQTVGFAHGVMNTDNMSILGLTIDYGPFGFLDDYDPGFIGNHSDHQGRYRFDNQPSVALWNLQRLAQTLTPFIEIDALNRALDRYQDALLTHYGQRMRQKLGFFTEQKDDNVLLNELFSLMAREGSDYTRTFRMLSHTEQQSASSPLRDTFIDRAAFDAWFDRYRARLRTEAVDDALRQQQMQRVNPAIVLRNWLAQRAIDAAEQGDMAELHRLHEVLRQPFTDRDDDYASRPPEWGKRLEVSCSSMAGDPLEHHHHHH,not soluble
9,QLRDFSSIIQTCSGNIQRISQATAQIKNLMSQLGTKQDSSKLQENLQQLQHSTNQLAKETNELLKELGSLPLPLSTSEQRQQRLQKERLMNDFSAALNNFQAVQRRVSEKEKESIAR,soluble
10,MGSDKIHHHHHHMERQARIIAFYATNENVGKSTLSIAMANELAHLGKKVLYVEADQVRPSFAVGTGLSHDSKNILELVRKENEYNLSQYICTKQDLLERKMNPRLMQKLHDKMDFLVFPSGYNLAQFPEIQNKELFVTTFIESLVDTEYDSIILSVPTELSEVLSYPILYQSDLVIHVLNGNPRGAIAIKRELQLLEEAKLTLPRMIHVLNMADEDYVEDIEKLSSQKIAVTIPYDRDRTSYEWGMQFGSPQINTKVHHIMEAAGLDIPTQHTSSMKKGLFGLRN,not soluble
11,MDTSTNLDIGAQLIVEECPSTYSLTGMPDIKIEHPLDPNSEEGSAQGVAMGMKFILPNRFDMNVCSRFVKSLNEEDSKNIQDQVNSDLEVASVLFKAECNIHTSPSPGIQVRHVYTPSTTKHFSPIKQSTTLTNKHRGNEVSTTPLLANSLSVHQLAAQGEMLYLATRIEQENVINHTDEEGFTPLMWAAAHGQIAVVEFLLQNGADPQLLGKGRESALSLACSKGYTDIVKMLLDCGVDVNEYDWNGGTPLLYAVHGNHVKCVKMLLESGADPTIETDSGYNSMDLAVALGYRSVQQVIESHLLKLLQNIKE,soluble
12,MCKSCYHCGEDVPANTDFKVEILGEVREMCCPGCETVAQTIVDSGLVSYYQYRTAPAEKADLVPEQLQALIHYDNEDVQSEFVRNHDN,not soluble
13,MSLLRPLSKTDCPMLQEINAKALGYLVSLDLLERQYERLIEDCHHYFLAYADKDTNQLLGYVHAERYETLYASDGLNLLGLAVLPAYQRRGIGSALLRALESQARQEGIAFIRLNSASHRKEAHAFYRNLDYADDKTQLRFIKNLQGDDNDFEGHHHHHH,soluble
14,MLENSKKLIMNFVLKYSKKKRQNSGINISEICKFFEHVPLSCAALGLATKKNFGGEICAFKERKIKNYCKIFEPKSALFQTPPPPLIVGVISGAH,soluble
15,MSFESNQLMPIAALRGGPGTPAADVLTAFALRRKAEGIDVVGVIVPPEDAGSGHQGHGHGEGHGGGHEGCECRSELIDIATGDRYAMHQDLGSGSQACNLNSSSLALAAGAVERAVARKPALVVLSRFGGQEAVRGGLMSAFQAAIAAGVPVACVVTPKAEDVWNDFAQGLSVSLPPEADALEAWWRDHARGRNAALEHHHHHH,not soluble
16,MERIALFIDGANVYAAAKRLGWNFDHRKILEHFAGLGALYNAFYYTAVPWPVDDKQKRFVDALTYMGYTVRTRPLRENTDENGDTSRRASLDIELVTDLLTTESRYDVAVLLSGDGDFERPVEVLRARGKKVIVASIPEMTSAELRNAADEYVDLASIREQVERPGYRLPSEGSGR,not soluble
